Source: article PMC10707181, “Neuronal Scaffold Protein ARMS Interacts with Synaptotagmin-4 C2AB through the Ankyrin Repeat Domain with an Unexpected Mode” (International Journal of Molecular Sciences, 2023)
Numbering of substitutions follows the chain as printed. Names and notes keep the numbering of the source.

Columns and labels:
[1] = target: T1, ARMS protein N-terminal region (NT, residues 1–455) (rat, UniProt Q9EQG6 1-455); experiment: ITC; ARMS proteins (200 μM) in the syringe, Syt4 proteins (20 μM) in the cell; 25 °C; 50 mM Tris, 100 mM NaCl, 1 mM EDTA, 1 mM DTT, pH 7.8; one-site binding model; details: both partners purified
T1 construct: ARMS (Kidins220), rat, UniProt Q9EQG6, residues 1-455: N-terminal region with the entire ankyrin repeat domain; also called ARMS NT; Kidins220 NT; source: E. coli BL21 (DE3), purified (Ni-NTA, size-exclusion chromatography)
T1 sequence (looked up): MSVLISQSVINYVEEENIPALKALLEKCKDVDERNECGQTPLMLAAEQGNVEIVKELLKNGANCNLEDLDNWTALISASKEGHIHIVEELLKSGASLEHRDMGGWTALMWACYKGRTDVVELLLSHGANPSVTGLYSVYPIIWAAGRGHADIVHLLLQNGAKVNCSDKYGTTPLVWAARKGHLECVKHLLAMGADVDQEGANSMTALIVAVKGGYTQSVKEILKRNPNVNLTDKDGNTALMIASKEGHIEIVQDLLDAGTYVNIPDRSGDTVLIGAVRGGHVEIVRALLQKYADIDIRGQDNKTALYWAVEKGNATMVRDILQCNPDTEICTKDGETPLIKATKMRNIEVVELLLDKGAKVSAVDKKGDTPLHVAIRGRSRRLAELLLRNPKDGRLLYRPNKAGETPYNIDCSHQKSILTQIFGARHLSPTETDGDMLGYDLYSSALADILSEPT

[2] = target: T2, ARMS R1-11 K180A (rat, UniProt Q9EQG6 1-365, K180A); experiment: as above; details: both partners purified
T2 construct: ARMS (Kidins220), rat, UniProt Q9EQG6, residues 1-365 (R1-11) with K180A; also called ARMS K180A; source: E. coli BL21 (DE3), purified (Ni-NTA, size-exclusion chromatography)
T2 sequence (looked up): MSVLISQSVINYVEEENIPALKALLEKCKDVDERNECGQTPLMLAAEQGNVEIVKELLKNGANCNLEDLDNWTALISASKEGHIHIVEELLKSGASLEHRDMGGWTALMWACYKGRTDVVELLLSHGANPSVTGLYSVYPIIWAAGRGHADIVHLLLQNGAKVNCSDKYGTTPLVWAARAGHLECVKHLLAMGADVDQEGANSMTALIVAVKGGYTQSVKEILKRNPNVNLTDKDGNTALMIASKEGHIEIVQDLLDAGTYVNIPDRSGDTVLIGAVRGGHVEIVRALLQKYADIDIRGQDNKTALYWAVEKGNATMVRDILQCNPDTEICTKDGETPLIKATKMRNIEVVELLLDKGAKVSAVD

[3] = target: T3, ARMS ankyrin repeats 1–11 (R1-11, residues 1–365) (rat, UniProt Q9EQG6 1-365); experiment: as above; details: both partners purified
T3 construct: ARMS (Kidins220), rat, UniProt Q9EQG6, residues 1-365: ankyrin repeats 1-11; also called ARMS R1-11; ARMS R1-11 WT; source: E. coli BL21 (DE3), purified (Ni-NTA, size-exclusion chromatography)
T3 sequence (looked up): T2 sequence (looked up) with A180K

[4] = target: T4, ARMS R1-11 K180A (rat, UniProt Q9EQG6 1-365, K180A); experiment: ITC
T4 sequence: T2 sequence (looked up)

B1: full length of the cytoplasmic region of Syt4 (CD, residues 41–425) (domain or fragment, human, UniProt Q9H2B2-1 41-425, looked up)
chain: KSSKSNKTPPYKFVHVLKGVDIYPENLNSKKKFGADDKNEVKNKPAVPKNSLHLDLEKRDLNGNFPKTNLKPGSPSDLENATPKLFLEGEKESVSPESLKSSTSLTSEEKQEKLGTLFFSLEYNFERKAFVVNIKEARGLPAMDEQSMTSDPYIKMTILPEKKHKVKTRVLRKTLDPAFDETFTFYGIPYTQIQELALHFTILSFDRFSRDDIIGEVLIPLSGIELSEGKMLMNREIIKRNVRKSSGRGELLISLCYQSTTNTLTVVVLKARHLPKSDVSGLSDPYVKVNLYHAKKRISKKKTHVKKCTPNAVFNELFVFDIPCEGLEDISVEFLVLDSERGSRNEVIGQLVLGAAAEGTGGEHWKEICDYPRRQIAKWHVLCDG
notes: also called Synaptotagmin-4 CD; source: E. coli BL21 (DE3), purified (Ni-NTA, size-exclusion chromatography)
Kd [1]: ~17 µM

B2: Syt4 132–425 (domain or fragment, human, UniProt Q9H2B2-1 132-425, looked up)
chain: ESVSPESLKSSTSLTSEEKQEKLGTLFFSLEYNFERKAFVVNIKEARGLPAMDEQSMTSDPYIKMTILPEKKHKVKTRVLRKTLDPAFDETFTFYGIPYTQIQELALHFTILSFDRFSRDDIIGEVLIPLSGIELSEGKMLMNREIIKRNVRKSSGRGELLISLCYQSTTNTLTVVVLKARHLPKSDVSGLSDPYVKVNLYHAKKRISKKKTHVKKCTPNAVFNELFVFDIPCEGLEDISVEFLVLDSERGSRNEVIGQLVLGAAAEGTGGEHWKEICDYPRRQIAKWHVLCDG
notes: source: E. coli BL21 (DE3), purified (Ni-NTA, size-exclusion chromatography)
binding result [2]: binds
binding result [3]: binds
Kd [4]: 11 µM

B3: Syt4 132–425 K284A (domain or fragment, human, UniProt Q9H2B2-1 132-425, looked up)
chain: B2 chain with K153A
notes: also called Syt4 K284A variant; source: E. coli BL21 (DE3), purified (Ni-NTA, size-exclusion chromatography)
binding result [3]: binds

B4: Syt4 C2AB (residues 151–425) (domain or fragment, human, UniProt Q9H2B2-1 151-425, looked up)
chain: QEKLGTLFFSLEYNFERKAFVVNIKEARGLPAMDEQSMTSDPYIKMTILPEKKHKVKTRVLRKTLDPAFDETFTFYGIPYTQIQELALHFTILSFDRFSRDDIIGEVLIPLSGIELSEGKMLMNREIIKRNVRKSSGRGELLISLCYQSTTNTLTVVVLKARHLPKSDVSGLSDPYVKVNLYHAKKRISKKKTHVKKCTPNAVFNELFVFDIPCEGLEDISVEFLVLDSERGSRNEVIGQLVLGAAAEGTGGEHWKEICDYPRRQIAKWHVLCDG
notes: also called Syt4 CAB; source: E. coli BL21 (DE3), purified (Ni-NTA, size-exclusion chromatography)
Kd [3]: ~7 µM

B5: Syt4 132–425 Q186A (domain or fragment, human, UniProt Q9H2B2-1 132-425, looked up)
chain: B2 chain with Q55A
notes: also called Syt4 Q186A; source: E. coli BL21 (DE3), purified (Ni-NTA, size-exclusion chromatography)
binding result [3]: binds
